Key:
[1] = Carboxylate reductase activity, 7-hydroxyheptanoate to 7-hydroxyheptanal, NADPH consumption at 340 nm; type: biochemical; settings: enhanced by gene product of sfp, 20 min, against empty vector control, FIG. 44
Protocol: A sequence encoding a His-tag was added to the genes from Mycobacterium marinum, Mycobacterium smegmatis, Segniliparus rugosus, Mycobacterium smegmatis, Mycobacterium massiliense, and Segniliparus rotundus that encode the carboxylate reductases of SEQ ID NOs: 25 (GenBank Accession No. ACC40567.1), 27 (GenBank Accession No. ABK75684.1), 29 (GenBank Accession No. ABK71854.1), 31 (GenBank Accession No. EFV11917.1), 37 (GenBank Accession No. EIV11143.1), and 38 (GenBank Accession No. ADG98140.1) such that N-terminal HIS tagged carboxylate reductases could be produced. Each of the modified genes was cloned into a pET Duet expression vector alongside a sfp gene encoding a His-tagged phosphopantetheine transferase from Bacillus subtilis, both under control of the T7 promoter.
Each expression vector was transformed into a BL21[DE3] E. coli host and the resulting recombinant E. coli strains were cultivated at 37° C. in a 250 mL shake flask culture containing 50 mL LB media and antibiotic selection pressure, with shaking at 230 rpm. Each culture was induced overnight at 37° C. using an auto-induction media.
The pellet from each induced shake flask culture was harvested via centrifugation. Each pellet was resuspended and lysed via sonication. The cell debris was separated from the supernatant via centrifugation. The carboxylate reductases and phosphopantetheine transferase were purified from the supernatant using Ni-affinity chromatography, diluted 10-fold into 50 mM HEPES buffer (pH=7.5) and concentrated via ultrafiltration.
Enzyme activity (i.e., 7-hydroxyheptanoate to 7-hydroxyheptanal) assays were performed in triplicate in a buffer composed of a final concentration of 50 mM HEPES buffer (pH=7.5), 2 mM […], 10 mM MgCl2, 1 mM ATP, and 1 mM NADPH. Each enzyme activity assay reaction was initiated by adding purified carboxylate reductase and phosphopantetheine transferase or the empty vector control to the assay buffer containing the 7-hydroxyheptanoate and then incubated at room temperature for 20 min. The consumption of NADPH was monitored by absorbance at 340 nm.

[2] = Carboxylate reductase activity, heptanedioate to 7-oxoheptanoate, NADPH consumption at 340 nm; type: biochemical; settings: enhanced by gene product of sfp, 2 mM substrate, 20 min, against empty vector control, FIG. 43
Protocol: A sequence encoding a HIS-tag was added to the genes from Segniliparus rugosus and Segniliparus rotundus that encode the carboxylate reductases of SEQ ID NOs: 31 (GenBank Accession No. EFV11917.1) and 38 (GenBank Accession No. ADG98140.1), respectively, such that N-terminal HIS tagged carboxylate reductases could be produced. Each of the modified genes was cloned into a pET Duet expression vector along with a sfp gene encoding a HIS-tagged phosphopantetheine transferase from Bacillus subtilis, both under the T7 promoter. Each expression vector was transformed into a BL21[DE3] E. coli host and the resulting recombinant E. coli strains were cultivated at 37° C. in a 250 mL shake flask culture containing 50 mL LB media and antibiotic selection pressure, with shaking at 230 rpm. Each culture was induced overnight at 37° C. using an auto-induction media.
The pellet from each induced shake flask culture was harvested via centrifugation. Each pellet was resuspended and lysed via sonication, and the cell debris was separated from the supernatant via centrifugation. […]
Enzyme activity assays (i.e., from heptanedioate to 7-oxoheptanoate) were performed in triplicate in a buffer composed of a final concentration of 50 mM HEPES buffer (pH=7.5), 2 mM heptanedioate, 10 mM MgCl2, 1 mM ATP, and 1 mM NADPH. […] The consumption of NADPH was monitored by absorbance at 340 nm.

B1: SEQ ID NO: 31: Segniliparus rugosus carboxylate reductase (protein)
chain: MGDGEERAKRFFQRIGELSATDPQFAAAAPDPAVVEAVSDPSLSFTRYLDTLMRGYAERPALAHRVGAGYETISYGELWARVGAIAAAWQADGLAPGDFVATVGFTSPDYVAVDLAAARSGLVSVPLQAGASLAQLVGILEETEPKVLAASASSLEGAVACALAAPSVQRLVVFDLRGPDASESAADERRGALADAEEQLARAGRAVVVETLADLAARGEALPEAPLFEPAEGEDPLALLIYTSGSTGAPKGAMYSQRLVSQLWGRTPVVPGMPNISLHYMPLSHSYGRAVLAGALSAGGTAHFTANSDLSTLFEDIALARPTFLALVPRVCEMLFQESQRGQDVAELRERVLGGRLLVAVCGSAPLSPEMRAFMEEVLGFPLLDGYGSTEALGVMRNGIIQRPPVIDYKLVDVPELGYRTTDKPYPRGELCIRSTSLISGYYKRPEITAEVFDAQGYYKTGDVMAEIAPDHLVYVDRSKNVLKLSQGEFVAVAKLEAAYGTSPYVKQIFVYGNSERSFLLAVVVPNAEVLGARDQEEAKPLIAASLQKIAKEAGLQSYEVPRDFLIETEPFTTQNGLLSEVGKLLRPKLKARYGEALEARYDEIAHGQADELRALRDGAGQRPVVETVVRAAVAISGSEGAEVGPEANFADLGGDSLSALSLANLLHDVFEVEVPVRIIIGPTASLAGIAKHIEAERAGASAPTAASVHGAGATRIRASELTLEKFLPEDLLAAAKGLPAADQVRTVLLTGANGWLGRFLALEQLERLARSGQDGGKLICLVRGKDAAAARRRIEETLGTDPALAARFAELAEGRLEVVPGDVGEPKFGLDDAAWDRLAEEVDVIVHPAALVNHVLPYHQLFGPNVVGTAEIIRLAITAKRKPVTYLSTVAVAAGVEPSSFEEDGDIRAVVPERPLGDGYANGYGNSKWAGEVLLREAHELVGLPVAVFRSDMILAHTRYTGQLNVPDQFTRLVLSLLATGIAPKSFYQQGAAGERQRAHYDGIPVDFTAEAITTLGAEPSWFDGGAGFRSFDVFNPHHDGVGLDEFVDWLIEAGHPISRIDDHKEWFARFETAVRGLPEAQRQHSLLPLLRAYSFPHPPVDGSVYPTGKFQGAVKAAQVGSDHDVPHLGKALIVKYADDLKALGLL
modifications: Segniliparus rugosus ATCC BAA-974
notes: Segniliparus rugosus carboxylate reductase
For B1, the “acceptance of 7-hydroxyheptanoate as substrate, forming 7-hydroxyheptanal” value [1] was “accepted 7-hydroxyheptanoate as substrate” and the “acceptance of heptanedioate as substrate, forming 7-oxoheptanoate” value [2] was “accepted heptanedioate as substrate”.

Source: patent US10801046B2, “Methods and materials for biosynthesizing multifunctional, multivariate molecules via carbon chain modification” (INVISTA NORTH AMERICA S.A.R.L., priority 2016, dated 2020)
